# According to the supplement of paper PMC11316812:
# ± gives the standard deviation of the averaged measurements.
# Tests used:
# [1] = test system: MCF7; experiment: percentage of EdU-negative (G0-arrested) nuclei per well, 72 h; higher = more G0 arrest; conditions: reference: sequence is the full UniProt precursor, the tested protein was the secreted form or ectodomain
# [2] = test system: hTERT-HMEC; experiment: as above; conditions: reference: sequence is the full UniProt precursor, the tested protein was the secreted form or ectodomain
# [3] = protein concentration 0.0225 µM
# [4] = protein concentration 0.01175 µM
# [5] = protein concentration 0.1175 µM
# [6] = protein concentration 0.0111429 µM
# [7] = protein concentration 0.111429 µM
# [8] = protein concentration 0.0357143 µM
# [9] = protein concentration 0.357143 µM
# [10] = protein concentration 0.0272075 µM
# [11] = protein concentration 0.272075 µM
# 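Note: secreted proteins added to cultured cells, EdU pulse at the end, nuclei found by Hoechst imaging, EdU status from nuclear versus surrounding ring intensity ratio, PBS as neutral control.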
sequence,measurement,setting,value
MAARRSQRRRGRRGEPGTALLVPLALGLGLALACLGLLLAVVSLGSRASLSAQEPAQEELVAEEDQDPSELNPQTEESQDPAPFLNRLVRPRRSAPKGRKTRARRAIAAHYEVHPRPGQDGAQAGVDGTVSGWEEARINSSSPLRYNRQIGEFIVTRAGLYYLYCQVHFDEGKAVYLKLDLLVDGVLALRCLEEFSATAASSLGPQLRLCQVSGLLALRPGSSLRIRTLPWAHLKAAPFLTYFGLFQVH,percentage of EdU-negative,[1]; [3],24.6 ± 1.4%
same,percentage of EdU-negative,[1]; protein concentration 0.225 µM,24.3 ± 3.4%
same,percentage of EdU-negative,[2]; [3],12.2 ± 2.6%
same,percentage of EdU-negative,[2]; protein concentration 0.225 µM,13.4 ± 1.1%
MRLLPLAPGRLRRGSPRHLPSCSPALLLLVLGGCLGVFGVAAGTRRPNVVLLLTDDQDEVLGGMTPLKKTKALIGEMGMTFSSAYVPSALCCPSRASILTGKYPHNHHVVNNTLEGNCSSKSWQKIQEPNTFPAILRSMCGYQTFFAGKYLNEYGAPDAGGLEHVPLGWSYWYALEKNSKYYNYTLSINGKARKHGENYSVDYLTDVLANVSLDFLDYKSNFEPFFMMIATPAPHSPWTAAPQYQKAFQNVFAPRNKNFNIHGTNKHWLIRQAKTPMTNSSIQFLDNAFRKRWQTLLSVDDLVEKLVKRLEFTGELNNTYIFYTSDNGYHTGQFSLPIDKRQLYEFDIKVPLLVRGPGIKPNQTSKMLVANIDLGPTILDIAGYDLNKTQMDGMSLLPILRGASNLTWRSDVLVEYQGEGRNVTDPTCPSLSPGVSQCFPDCVCEDAYNNTYACVRTMSALWNLQYCEFDDQEVFVEVYNLTADPDQITNIAKTIDPELLGKMNYRLMMLQSCSGPTCRTPGVFDPGYRFDPRLMFSNRGSVRTRRFSKHLL,percentage of EdU-negative,[1]; [4],25.19 ± 0.18%
same,percentage of EdU-negative,[1]; [5],25.1 ± 1.3%
same,percentage of EdU-negative,[2]; [4],5.009 ± 0.019%
same,percentage of EdU-negative,[2]; [5],5.44 ± 1.4%
MLLLLTLALLGGPTWAGKMYGPGGGKYFSTTEDYDHEITGLRVSVGLLLVKSVQVKLGDSWDVKLGALGGNTQEVTLQPGEYITKVFVAFQAFLRGMVMYTSKDRYFYFGKLDGQISSAYPSQEGQVLVGIYGQYQLLGIKSIGFEWNYPLEEPTTEPPVNLTYSANSPVGR [Q96DA0],percentage of EdU-negative,[1]; [3],25.49 ± 0.17%
same,percentage of EdU-negative,[1]; protein concentration 0.225 µM,24.3 ± 2.2%
same,percentage of EdU-negative,[2]; [3],5.62 ± 0.12%
same,percentage of EdU-negative,[2]; protein concentration 0.225 µM,9.31 ± 0.28%
MWAPRCRRFWSRWEQVAALLLLLLLLGVPPRSLALPPIRYSHAGICPNDMNPNLWVDAQSTCRRECETDQECETYEKCCPNVCGTKSCVAARYMDVKGKKGPVGMPKEATCDHFMCLQQGSECDIWDGQPVCKCKDRCEKEPSFTCASDGLTYYNRCYMDAEACSKGITLAVVTCRYHFTWPNTSPPPPETTMHPTTASPETPELDMAAPALLNNPVHQSVTMGETVSFLCDVVGRPRPEITWEKQLEDRENVVMRPNHVRGNVVVTNIAQLVIYNAQLQDAGIYTCTARNVAGVLRADFPLSVVRGHQAAATSESSPNGTAFPAAECLKPPDSEDCGEEQTRWHFDAQANNCLTFTFGHCHRNLNHFETYEACMLACMSGPLAACSLPALQGPCKAYAPRWAYNSQTGQCQSFVYGGCEGNGNNFESREACEESCPFPRGNQRCRACKPRQKLVTSFCRSDFVILGRVSELTEEPDSGRALVTVDEVLKDEKMGLKFLGQEPLEVTLLHVDWACPCPNVTVSEMPLIIMGEVDGGMAMLRPDSFVGASSARRVRKLREVMHKKTCDVLKEFLGLH [Q8TEU8],percentage of EdU-negative,[1]; [6],25.8 ± 3%
same,percentage of EdU-negative,[1]; [7],28.02 ± 0.15%
same,percentage of EdU-negative,[2]; [6],5.48 ± 1.1%
same,percentage of EdU-negative,[2]; [7],6.03 ± 0.2%
MAWMLLLILIMVHPGSCALWVSQPPEIRTLEGSSAFLPCSFNASQGRLAIGSVTWFRDEVVPGKEVRNGTPEFRGRLAPLASSRFLHDHQAELHIRDVRGHDASIYVCRVEVLGLGVGTGNGTRLVVEKEHPQLGAGTVLLLRAGFYAVSFLSVAVGSTVYYQGKCLTWKGPRRQLPAVVPAPLPPPCGSSAHLLPPVPGG,percentage of EdU-negative,[1]; [3],22.75 ± 0.21%
same,percentage of EdU-negative,[1]; protein concentration 0.225 µM,23.2 ± 1.3%
same,percentage of EdU-negative,[2]; [3],4.49 ± 0.81%
same,percentage of EdU-negative,[2]; protein concentration 0.225 µM,4.92 ± 0.2%
MALPSRILLWKLVLLQSSAVLLHSGSSVPAAAGSSVVSESAVSWEAGARAVLRCQSPRMVWTQDRLHDRQRVLHWDLRGPGGGPARRLLDLYSAGEQRVYEARDRGRLELSASAFDDGNFSLLIRAVEETDAGLYTCNLHHHYCHLYESLAVRLEVTDGPPATPAYWDGEKEVLAVARGAPALLTCVNRGHVWTDRHVEEAQQVVHWDRQPPGVPHDRADRLLDLYASGERRAYGPLFLRDRVAVGADAFERGDFSLRIEPLEVADEGTYSCHLHHHYCGLHERRVFHLTVAEPHAEPPPRGSPGNGSSHSGAPGPDPTLARGHNVINVIVPESRAHFFQQLGYVLATLLLFILLLVTVLLAARRRRGGYEYSDQKSGKSKGKDVNLAEFAVAAGDQMLYRSEDIQLDYKNNILKERAELAHSPLPAKYIDLDKGFRKENCK [Q9BRK3],percentage of EdU-negative,[1]; [8],23.2 ± 2.3%
same,percentage of EdU-negative,[1]; [9],25 ± 0.57%
same,percentage of EdU-negative,[2]; [8],4.84 ± 0.53%
same,percentage of EdU-negative,[2]; [9],5.72 ± 0.27%
MTATEALLRVLLLLLAFGHSTYGAECFPACNPQNGFCEDDNVCRCQPGWQGPLCDQCVTSPGCLHGLCGEPGQCICTDGWDGELCDRDVRACSSAPCANNRTCVSLDDGLYECSCAPGYSGKDCQKKDGPCVINGSPCQHGGTCVDDEGRASHASCLCPPGFSGNFCEIVANSCTPNPCENDGVCTDIGGDFRCRCPAGFIDKTCSRPVTNCASSPCQNGGTCLQHTQVSYECLCKPEFTGLTCVKKRALSPQQVTRLPSGYGLAYRLTPGVHELPVQQPEHRILKVSMKELNKKTPLLTEGQAICFTILGVLTSLVVLGTVGIVFLNKCETWVSNLRYNHMLRKKKNLLLQYNSGEDLAVNIIFPEKIDMTTFSKEAGDEEI,percentage of EdU-negative,[1]; [10],27.1 ± 2.7%
same,percentage of EdU-negative,[1]; [11],26.7 ± 1.4%
same,percentage of EdU-negative,[2]; [10],4.9 ± 0.42%
same,percentage of EdU-negative,[2]; [11],6.02 ± 1.2%
